Experiments:
[1] = molecular target: Co-hArgI-C^PEG-20K (hArgI-C conjugated at the N-terminal Cys to 20 KDa PEG-maleimide) (human); assay: SEC
[2] = molecular target: human Arginase I with an engineered N-terminal Cys residue (hArgI-C), not PEGylated (human); assay: SEC

stoichiometry N [1]	percent dimeric [2]	percent monomeric [2]	Substance
3			Co-hArgI-C^PEG-20K (hArgI-C conjugated at the N-terminal Cys to 20 KDa PEG-maleimide) (enzyme)
	10%	90%	human Arginase I with an engineered N-terminal Cys residue (hArgI-C), not PEGylated (enzyme)
